Experiments:
Test in all cases: cell-based or functional assay
Abl(Q252H)(h) (human) = Abl(Q252H)(h) (human) (UniProt P00519)
DRAK1(h) (human) = target: T1, DRAK1(h) (human) (UniProt Q9UEE5)
T1 sequence (looked up): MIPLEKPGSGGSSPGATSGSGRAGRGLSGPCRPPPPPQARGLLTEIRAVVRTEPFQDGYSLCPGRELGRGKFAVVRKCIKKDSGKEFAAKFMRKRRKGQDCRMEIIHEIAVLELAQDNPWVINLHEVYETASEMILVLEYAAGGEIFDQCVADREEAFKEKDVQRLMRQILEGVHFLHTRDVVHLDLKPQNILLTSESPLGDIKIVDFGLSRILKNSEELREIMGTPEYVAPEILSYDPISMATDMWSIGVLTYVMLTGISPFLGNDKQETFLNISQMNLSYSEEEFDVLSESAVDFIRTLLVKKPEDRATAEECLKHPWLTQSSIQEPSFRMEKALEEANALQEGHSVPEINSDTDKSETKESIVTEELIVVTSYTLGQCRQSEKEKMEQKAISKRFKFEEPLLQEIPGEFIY

DYRK2(h) (human) = DYRK2(h) (human) (UniProt Q92630)
Fer(h) (human) = Fer(h) (human) (UniProt P16591)
Fms(h) (human) = target: T2, Fms(h) (human) (UniProt P07333)
T2 sequence (looked up): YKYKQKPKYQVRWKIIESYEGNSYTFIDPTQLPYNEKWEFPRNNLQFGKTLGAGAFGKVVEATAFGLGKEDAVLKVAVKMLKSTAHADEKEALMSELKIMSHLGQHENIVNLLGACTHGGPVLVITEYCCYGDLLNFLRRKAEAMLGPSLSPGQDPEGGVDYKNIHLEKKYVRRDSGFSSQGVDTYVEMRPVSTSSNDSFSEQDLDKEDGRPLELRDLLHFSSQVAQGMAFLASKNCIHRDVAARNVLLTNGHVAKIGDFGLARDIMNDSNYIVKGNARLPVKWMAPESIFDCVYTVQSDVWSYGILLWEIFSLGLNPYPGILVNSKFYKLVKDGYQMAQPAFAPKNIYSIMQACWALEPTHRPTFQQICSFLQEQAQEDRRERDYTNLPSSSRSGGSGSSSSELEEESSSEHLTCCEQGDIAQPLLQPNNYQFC

PASK(h) (human) = PASK(h) (human) (UniProt Q96RG2)
PDK1(h) (human) = target: T3, PDK1(h) (human) (UniProt O15530)
T3 sequence (looked up): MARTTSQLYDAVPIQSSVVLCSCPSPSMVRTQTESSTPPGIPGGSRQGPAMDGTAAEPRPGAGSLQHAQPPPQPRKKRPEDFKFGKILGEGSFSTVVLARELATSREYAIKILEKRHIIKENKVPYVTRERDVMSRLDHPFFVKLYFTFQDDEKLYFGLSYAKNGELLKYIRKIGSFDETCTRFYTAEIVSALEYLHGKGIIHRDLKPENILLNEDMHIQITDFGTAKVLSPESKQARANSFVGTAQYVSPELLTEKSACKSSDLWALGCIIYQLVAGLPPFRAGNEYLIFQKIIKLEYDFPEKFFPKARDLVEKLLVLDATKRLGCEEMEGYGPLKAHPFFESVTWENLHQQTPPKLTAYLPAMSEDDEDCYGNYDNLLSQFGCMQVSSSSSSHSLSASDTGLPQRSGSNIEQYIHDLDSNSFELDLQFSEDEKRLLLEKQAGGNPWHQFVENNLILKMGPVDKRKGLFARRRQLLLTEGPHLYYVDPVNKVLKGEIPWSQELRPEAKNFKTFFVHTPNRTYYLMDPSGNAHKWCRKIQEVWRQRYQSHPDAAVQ

PKCα(h) (human) = PKCα(h) (human) (UniProt P17252)
Pim-2(h) (human) = Pim-2(h) (human) (UniProt Q9P1W9)
SAPK2a(T106M)(h) (human) = SAPK2a(T106M)(h) (human) (UniProt Q16539)
Syk(h) (human) = Syk(h) (human) (UniProt P43405)
TBK1(h) (human) = target: T4, TBK1(h) (human) (UniProt Q9UHD2)
T4 sequence (looked up): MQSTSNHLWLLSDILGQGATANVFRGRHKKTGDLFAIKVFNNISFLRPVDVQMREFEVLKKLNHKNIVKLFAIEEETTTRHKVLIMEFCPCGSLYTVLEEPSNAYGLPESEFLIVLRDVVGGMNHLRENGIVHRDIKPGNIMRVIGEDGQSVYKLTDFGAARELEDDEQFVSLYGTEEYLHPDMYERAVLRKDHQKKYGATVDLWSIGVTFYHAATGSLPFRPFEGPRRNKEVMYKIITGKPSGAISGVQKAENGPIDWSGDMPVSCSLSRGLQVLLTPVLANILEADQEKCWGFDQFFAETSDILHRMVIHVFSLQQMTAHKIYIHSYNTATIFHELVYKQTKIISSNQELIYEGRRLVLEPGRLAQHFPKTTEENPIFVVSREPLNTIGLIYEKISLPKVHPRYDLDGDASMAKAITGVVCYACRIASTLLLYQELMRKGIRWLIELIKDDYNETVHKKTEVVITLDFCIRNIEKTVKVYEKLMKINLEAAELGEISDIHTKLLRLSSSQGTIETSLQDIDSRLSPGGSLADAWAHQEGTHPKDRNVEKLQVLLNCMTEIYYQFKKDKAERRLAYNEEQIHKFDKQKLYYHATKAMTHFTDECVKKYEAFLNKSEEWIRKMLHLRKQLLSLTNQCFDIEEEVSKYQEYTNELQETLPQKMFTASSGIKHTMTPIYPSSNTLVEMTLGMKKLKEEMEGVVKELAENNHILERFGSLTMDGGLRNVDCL

cKit(h) (human) = cKit(h) (human) (UniProt P10721)
Chain of cKit(h) (human) (P10721 544-976): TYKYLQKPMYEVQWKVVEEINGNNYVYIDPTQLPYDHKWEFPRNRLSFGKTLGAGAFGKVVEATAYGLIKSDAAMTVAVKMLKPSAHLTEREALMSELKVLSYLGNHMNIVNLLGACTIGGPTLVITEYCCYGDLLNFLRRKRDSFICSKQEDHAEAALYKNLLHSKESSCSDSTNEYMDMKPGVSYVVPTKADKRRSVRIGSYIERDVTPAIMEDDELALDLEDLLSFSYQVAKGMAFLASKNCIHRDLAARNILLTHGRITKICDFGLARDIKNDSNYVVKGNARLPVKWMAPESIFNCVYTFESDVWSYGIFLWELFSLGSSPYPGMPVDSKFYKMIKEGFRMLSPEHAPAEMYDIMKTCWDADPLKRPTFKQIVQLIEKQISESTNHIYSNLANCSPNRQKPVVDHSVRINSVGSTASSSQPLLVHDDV

Chain of SAPK2a(T106M)(h) (human) (Q16539 whole entry T106M): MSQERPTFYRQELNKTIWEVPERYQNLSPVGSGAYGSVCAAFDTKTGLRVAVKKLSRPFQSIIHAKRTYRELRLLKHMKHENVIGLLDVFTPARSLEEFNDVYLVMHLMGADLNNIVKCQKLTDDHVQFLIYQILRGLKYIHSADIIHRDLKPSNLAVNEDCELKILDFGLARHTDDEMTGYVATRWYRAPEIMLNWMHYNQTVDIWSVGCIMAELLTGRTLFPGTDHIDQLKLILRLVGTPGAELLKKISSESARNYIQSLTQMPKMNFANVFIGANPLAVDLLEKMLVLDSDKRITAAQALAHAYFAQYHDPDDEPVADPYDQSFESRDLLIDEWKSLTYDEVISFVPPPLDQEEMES
Chain of Abl(Q252H)(h) (human) (P00519 27-1130 Q252H limits assumed): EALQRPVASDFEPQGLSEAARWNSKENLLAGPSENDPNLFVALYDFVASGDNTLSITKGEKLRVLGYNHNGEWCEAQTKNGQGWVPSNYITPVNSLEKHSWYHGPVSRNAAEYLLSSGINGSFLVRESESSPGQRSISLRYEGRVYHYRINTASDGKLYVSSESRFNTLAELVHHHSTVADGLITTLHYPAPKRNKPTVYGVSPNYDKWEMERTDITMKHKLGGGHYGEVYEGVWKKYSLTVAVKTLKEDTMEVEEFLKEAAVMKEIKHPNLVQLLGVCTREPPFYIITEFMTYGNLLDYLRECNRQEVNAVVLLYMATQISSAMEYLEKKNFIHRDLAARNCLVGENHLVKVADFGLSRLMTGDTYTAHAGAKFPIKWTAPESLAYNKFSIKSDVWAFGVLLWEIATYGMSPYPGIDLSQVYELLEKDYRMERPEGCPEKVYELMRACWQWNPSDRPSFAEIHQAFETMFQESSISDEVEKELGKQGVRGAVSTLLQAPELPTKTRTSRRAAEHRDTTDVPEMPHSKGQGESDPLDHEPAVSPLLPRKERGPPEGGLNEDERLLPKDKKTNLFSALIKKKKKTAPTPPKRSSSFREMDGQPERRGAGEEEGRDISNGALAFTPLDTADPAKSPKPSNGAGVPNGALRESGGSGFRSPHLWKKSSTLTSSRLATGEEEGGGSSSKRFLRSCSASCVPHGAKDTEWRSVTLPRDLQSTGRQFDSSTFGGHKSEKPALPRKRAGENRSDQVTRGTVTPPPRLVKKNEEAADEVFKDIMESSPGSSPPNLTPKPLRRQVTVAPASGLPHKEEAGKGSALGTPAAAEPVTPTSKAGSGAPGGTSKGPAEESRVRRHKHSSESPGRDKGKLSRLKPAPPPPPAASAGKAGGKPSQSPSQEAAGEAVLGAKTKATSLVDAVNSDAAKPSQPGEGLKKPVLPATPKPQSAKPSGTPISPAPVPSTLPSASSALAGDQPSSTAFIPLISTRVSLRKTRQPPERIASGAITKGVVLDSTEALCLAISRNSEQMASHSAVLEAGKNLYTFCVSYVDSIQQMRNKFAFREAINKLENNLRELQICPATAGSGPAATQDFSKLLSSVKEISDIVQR

Row | % activity at 100 µM (Abl(Q252H)(h) (human)) [%] | % activity at 100 µM (DRAK1(h) (human)) [%] | % activity at 100 µM (DYRK2(h) (human)) [%] | % activity at 100 µM (Fer(h) (human)) [%] | % activity at 100 µM (Fms(h) (human)) [%] | % activity at 100 µM (PASK(h) (human)) [%] | % activity at 100 µM (PDK1(h) (human)) [%] | % activity at 100 µM (PKCα(h) (human)) [%] | % activity at 100 µM (Pim-2(h) (human)) [%] | % activity at 100 µM (SAPK2a(T106M)(h) (human)) [%] | % activity at 100 µM (Syk(h) (human)) [%] | % activity at 100 µM (TBK1(h) (human)) [%] | % activity at 100 µM (cKit(h) (human)) [%] | Substance
1 | 98 | 14 | 195 | 108 | 37 | 28 | 159 | 86 | 92 | 99 | 9 | 39 | 43 | MMI-0400 (peptide)
2 | 40 | 8 | 127 | 196 | 14 | 9 | 178 | 3 | 46 | 32 | 5 | 16 | 45 | MMI-0500 (peptide)
3 | 82 | 14 | 155 | 130 | 45 | 29 | 135 | 89 | 76 | 97 | 24 | 37 | 53 | MMI-0300 (peptide)

Source: patent US20150064134A1
